Test results: doi:10.1101/2021.04.07.438849 (bioRxiv, 2021)

Target: T1, SARS-CoV-2 Wuhan-Hu-1 S-HexaPro-D614G, displayed on HEK293T cells (SARS-CoV-2 Wuhan-Hu-1 with D614G …, UniProt A0A6N0C4S6, D614G)
T1 construct: also called WT (HexaPro-D614G); prefusion stabilized SARS-CoV-2 S D614G
Test: flow cytometry on cells
Conditions: one partner purified

B1: A7V3 IgG (antibody, V domains shown)
VH: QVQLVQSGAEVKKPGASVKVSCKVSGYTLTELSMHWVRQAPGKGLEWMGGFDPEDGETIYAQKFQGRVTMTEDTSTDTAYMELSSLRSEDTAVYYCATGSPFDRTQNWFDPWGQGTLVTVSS
VL: QSVVTQPPSVSAAPGQKVTISCSGSSSNIGNNYVSWYQQLPGTAPKLLIYDNNKRPSGIPDRFSGSKSGTSATLGITGLQTGDEADYYCGTWDSSLSAVVFGGGTKLTVL
notes: also called mAb A7V3
**Q.** Does B1 bind?
**A.** Result: binds
